Legend:
AbRibD = target: T1, AbRibD (Acinetobacter baumannii, UniProt D0CB74); assay: X-ray crystallography (cocrystallization), […] A; conditions: 5 mM GMP; crystals at pH 5, 293 K; NADPH-binding site of reductase domain (adenine pocket); second site on surface at occupancy 0.5; authors judge binding not biologically relevant
T1 construct: gene ribD; full length, 362 residues untagged (386 with tag); N-terminal His6-TEV tag (24 extra residues) kept; E. coli BL21(DE3); homodimer; subunit 42038 Da tagged
T1 sequence (D0CB74 1-361): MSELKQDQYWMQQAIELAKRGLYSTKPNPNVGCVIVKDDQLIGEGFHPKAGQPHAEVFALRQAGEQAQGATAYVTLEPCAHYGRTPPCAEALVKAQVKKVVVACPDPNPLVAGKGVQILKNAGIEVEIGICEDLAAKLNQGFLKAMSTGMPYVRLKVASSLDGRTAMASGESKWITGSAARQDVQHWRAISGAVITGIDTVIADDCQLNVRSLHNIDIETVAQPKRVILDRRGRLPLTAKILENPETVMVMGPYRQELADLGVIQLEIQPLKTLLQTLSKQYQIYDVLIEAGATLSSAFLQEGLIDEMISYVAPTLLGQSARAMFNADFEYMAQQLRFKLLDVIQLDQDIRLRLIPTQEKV

[1] = target: Acinetobacter baumannii diaminohydroxyphosphoribosylaminopyrimidine deaminase/5-amino-6-(5-phosphoribosylamino)uracil reductase (RibD) (Acinetobacter baumannii (strain ATCC 19606)); assay: SEC; Superdex 200 26/60, 50 mM Tris-HCl, 250 mM NaCl pH 7.5; both Ni2+ column peaks ran as homogeneous samples of approximate mass 58 kDa (tagged subunit 42 038 Da)
[2] = target: Acinetobacter baumannii diaminohydroxyphosphoribosylaminopyrimidine deaminase/5-amino-6-(5-phosphoribosylamino)uracil reductase (RibD) (Acinetobacter baumannii (strain ATCC 19606)); assay: crystal structure; form I (apo, C222(1), 2.2 A, two subunits in the asymmetric unit related by a noncrystallographic twofold) and form II (grown with 5 mM GMP, P4(3)2(1)2, 2.0 A, same dimer generated by a crystallographic twofold); crystals grown at 293 K

stoichiometry N [1]	stoichiometry N [2]	Compound	X-ray crystallography (cocrystallization), 1.99 A (AbRibD)
–	–	Nc1nc2c(ncn2[C@@H]2O[C@H](COP(=O)(O)O)[C@@H](O)[C@H]2O)c(=O)[nH]1 [GMP]	a GMP molecule was observed in the NADPH-binding site of the reductase domain
2	2	Acinetobacter baumannii diaminohydroxyphosphoribosylaminopyrimidine deaminase/5-amino-6-(5-phosphoribosylamino)uracil reductase (RibD) (enzyme)	–
